Measured values taken from the supplement of paper PMC10065799, “High-throughput profiling of sequence recognition by tyrosine kinases and SH2 domains using bacterial peptide display” (eLife, 2023).

biological target: Hck (UniProt P08631); test: phosphorylation enrichment, bacterial display (enrichment ratio); higher = better substrate or ligand; peptides without Tyr show the background
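Note: 11-residue human phosphosite peptides and single-mutation variants displayed on the E. coli surface, counted by deep sequencing, each peptide's frequency after selection divided by its frequency in the unselected input library; frequency after pTyr selection over input frequency; kinase dosed for 20-30% of maximal phosphorylation in three min.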

Hck, sequence (P08631 whole entry, looked up): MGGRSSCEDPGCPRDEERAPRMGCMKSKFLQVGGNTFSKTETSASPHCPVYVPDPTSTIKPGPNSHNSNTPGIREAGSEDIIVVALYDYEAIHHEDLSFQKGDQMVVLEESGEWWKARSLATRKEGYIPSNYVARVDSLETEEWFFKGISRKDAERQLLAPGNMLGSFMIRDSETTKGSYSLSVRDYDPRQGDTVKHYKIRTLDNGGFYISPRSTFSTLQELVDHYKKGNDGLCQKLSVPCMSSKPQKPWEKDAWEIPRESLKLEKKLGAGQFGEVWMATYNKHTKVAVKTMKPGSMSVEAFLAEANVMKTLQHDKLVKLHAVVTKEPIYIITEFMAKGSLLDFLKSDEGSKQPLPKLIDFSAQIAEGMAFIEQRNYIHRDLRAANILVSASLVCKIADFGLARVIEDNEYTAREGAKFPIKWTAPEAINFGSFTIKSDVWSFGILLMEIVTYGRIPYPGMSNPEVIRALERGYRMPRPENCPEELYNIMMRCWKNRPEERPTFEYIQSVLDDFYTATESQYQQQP

| Sequence | phosphorylation enrichment |
| --- | --- |
| QWPGPYDRPGA [HNRNPH2_Y210_R206W] | 0.73 |
| EEGRVYVYRLS [ITGAE_Y549] | 0.548 |
| DHCNQYEQQKM [CHD7_Y75_Y72C] | 0.499 |
| RGFDTYFGYLL [ARSB_Y165] | 7.09 |
| LLREWYLQDPF [SIX3_Y225_YF] | 0.509 |
| PRNLIYFGEHP [TRPV6_Y201_C197R] | 0.932 |
| KKLEVYQSIAD [MYBPC3_Y548] | 1.08 |
| THQKSYQPGRK [CEFIP_Y210_N208K] | 0.52 |
| SSEFHYVGGFF [CTSC_Y347_YF] | 0.544 |
| FASTGYVIAIQ [GRIN2B_Y762_G763V] | 0.418 |
| QNVADYMRCLM [RPL5_Y207_Y210C] | 0.652 |
| IGNGYYFRVFS [MYBPC3_Y1136] | 0.557 |
| LYSINYLHFGD [KDM4C_Y201_E206D] | 4.59 |
| KGSEGYLAAIY [NF1_Y2503_T2507I] | 1.09 |
| KGSLPYNLILD [PKD1L2_Y406] | 0.44 |
| RRVLVYVGRGA [QDPR_Y16_G17V] | 0.506 |
| ENPAKYDDIKK [GAPDH_Y255_K251N] | 0.412 |
| IFLADCRIMEG [ALOX12B_Y318_Y318C_YF] | 0.662 |
| NVTRKYSRQIL [MAP3K2_Y463_T464S] | 0.361 |
| LNAGAYSKVVE [PPT1_Y172_Q177E] | 0.411 |
| KNNSIYVLANI [VNN1_Y134_V136L] | 1.15 |
| GHEYIYVDRMQ [PDGFRB_Y581_P584R] | 1.44 |
| TRSFKYLLLSM [NF1_Y491_YF] | 0.44 |
| SDVWSYGVTMW [ZAP70_Y525] | 0.695 |
| DVSVVCSEVKT [FCRL4_Y493_Y493C] | 0.635 |
| METKGYHSLPE [NR3C2_Y6] | 0.377 |
| TDLAFYLVCKG [ASL_Y376_R379C_YF] | 0.547 |
| FEGHSYSACTT [MMP9_Y241_R239H] | 0.486 |
| PESTLYRKFTT [NTRK1_Y701_I699T] | 0.608 |

biological target: Jak2 (UniProt O60674); test: as above
Sequence (O60674 whole entry, looked up): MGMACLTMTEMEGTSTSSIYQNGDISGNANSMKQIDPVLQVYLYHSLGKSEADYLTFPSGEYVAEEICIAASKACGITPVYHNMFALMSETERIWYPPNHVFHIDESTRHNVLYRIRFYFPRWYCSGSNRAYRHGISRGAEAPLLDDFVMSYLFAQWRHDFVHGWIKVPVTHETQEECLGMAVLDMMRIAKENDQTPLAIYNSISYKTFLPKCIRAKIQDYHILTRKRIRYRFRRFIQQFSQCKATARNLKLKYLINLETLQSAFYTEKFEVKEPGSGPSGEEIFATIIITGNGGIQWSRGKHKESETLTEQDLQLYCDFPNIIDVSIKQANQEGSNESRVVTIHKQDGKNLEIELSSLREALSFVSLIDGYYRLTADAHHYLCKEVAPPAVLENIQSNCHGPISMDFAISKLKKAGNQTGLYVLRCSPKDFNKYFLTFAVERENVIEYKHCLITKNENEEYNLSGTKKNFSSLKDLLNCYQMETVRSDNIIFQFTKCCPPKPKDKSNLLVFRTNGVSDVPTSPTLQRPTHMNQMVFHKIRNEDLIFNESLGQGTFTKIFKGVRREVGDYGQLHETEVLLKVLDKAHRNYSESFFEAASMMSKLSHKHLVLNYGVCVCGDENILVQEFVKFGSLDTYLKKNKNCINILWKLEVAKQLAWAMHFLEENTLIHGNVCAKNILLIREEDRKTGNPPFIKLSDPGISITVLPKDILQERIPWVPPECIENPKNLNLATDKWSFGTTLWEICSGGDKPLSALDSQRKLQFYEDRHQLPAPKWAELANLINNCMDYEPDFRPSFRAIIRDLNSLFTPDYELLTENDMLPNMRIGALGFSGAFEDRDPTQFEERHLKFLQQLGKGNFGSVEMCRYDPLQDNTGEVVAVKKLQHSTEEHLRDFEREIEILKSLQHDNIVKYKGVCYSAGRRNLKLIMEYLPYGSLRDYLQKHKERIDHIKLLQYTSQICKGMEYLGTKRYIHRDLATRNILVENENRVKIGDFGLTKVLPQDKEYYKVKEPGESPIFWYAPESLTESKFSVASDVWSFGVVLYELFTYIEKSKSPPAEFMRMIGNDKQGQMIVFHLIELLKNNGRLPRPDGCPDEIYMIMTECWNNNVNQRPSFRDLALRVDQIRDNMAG

| Sequence | phosphorylation enrichment |
| --- | --- |
| QWPGPYDRPGA [HNRNPH2_Y210_R206W] | 0.719 |
| EEGRVYVYRLS [ITGAE_Y549] | 0.997 |
| DHCNQYEQQKM [CHD7_Y75_Y72C] | 0.699 |
| RGFDTYFGYLL [ARSB_Y165] | 5.83 |
| LLREWYLQDPF [SIX3_Y225_YF] | 1.52 |
| PRNLIYFGEHP [TRPV6_Y201_C197R] | 1.57 |
| KKLEVYQSIAD [MYBPC3_Y548] | 0.857 |
| THQKSYQPGRK [CEFIP_Y210_N208K] | 0.349 |
| SSEFHYVGGFF [CTSC_Y347_YF] | 0.904 |
| FASTGYVIAIQ [GRIN2B_Y762_G763V] | 0.941 |
| QNVADYMRCLM [RPL5_Y207_Y210C] | 1.37 |
| IGNGYYFRVFS [MYBPC3_Y1136] | 1.44 |
| LYSINYLHFGD [KDM4C_Y201_E206D] | 1.47 |
| KGSEGYLAAIY [NF1_Y2503_T2507I] | 0.673 |
| KGSLPYNLILD [PKD1L2_Y406] | 0.687 |
| RRVLVYVGRGA [QDPR_Y16_G17V] | 1.03 |
| ENPAKYDDIKK [GAPDH_Y255_K251N] | 0.829 |
| IFLADCRIMEG [ALOX12B_Y318_Y318C_YF] | 1.2 |
| NVTRKYSRQIL [MAP3K2_Y463_T464S] | 0.417 |
| LNAGAYSKVVE [PPT1_Y172_Q177E] | 0.541 |
| KNNSIYVLANI [VNN1_Y134_V136L] | 1.16 |
| GHEYIYVDRMQ [PDGFRB_Y581_P584R] | 0.644 |
| TRSFKYLLLSM [NF1_Y491_YF] | 0.977 |
| SDVWSYGVTMW [ZAP70_Y525] | 1.26 |
| DVSVVCSEVKT [FCRL4_Y493_Y493C] | 0.995 |
| METKGYHSLPE [NR3C2_Y6] | 0.804 |
| TDLAFYLVCKG [ASL_Y376_R379C_YF] | 1.57 |
| FEGHSYSACTT [MMP9_Y241_R239H] | 1.03 |
| PESTLYRKFTT [NTRK1_Y701_I699T] | 0.812 |

biological target: MERTK (UniProt Q12866); test: as above
Sequence (Q12866 whole entry, looked up): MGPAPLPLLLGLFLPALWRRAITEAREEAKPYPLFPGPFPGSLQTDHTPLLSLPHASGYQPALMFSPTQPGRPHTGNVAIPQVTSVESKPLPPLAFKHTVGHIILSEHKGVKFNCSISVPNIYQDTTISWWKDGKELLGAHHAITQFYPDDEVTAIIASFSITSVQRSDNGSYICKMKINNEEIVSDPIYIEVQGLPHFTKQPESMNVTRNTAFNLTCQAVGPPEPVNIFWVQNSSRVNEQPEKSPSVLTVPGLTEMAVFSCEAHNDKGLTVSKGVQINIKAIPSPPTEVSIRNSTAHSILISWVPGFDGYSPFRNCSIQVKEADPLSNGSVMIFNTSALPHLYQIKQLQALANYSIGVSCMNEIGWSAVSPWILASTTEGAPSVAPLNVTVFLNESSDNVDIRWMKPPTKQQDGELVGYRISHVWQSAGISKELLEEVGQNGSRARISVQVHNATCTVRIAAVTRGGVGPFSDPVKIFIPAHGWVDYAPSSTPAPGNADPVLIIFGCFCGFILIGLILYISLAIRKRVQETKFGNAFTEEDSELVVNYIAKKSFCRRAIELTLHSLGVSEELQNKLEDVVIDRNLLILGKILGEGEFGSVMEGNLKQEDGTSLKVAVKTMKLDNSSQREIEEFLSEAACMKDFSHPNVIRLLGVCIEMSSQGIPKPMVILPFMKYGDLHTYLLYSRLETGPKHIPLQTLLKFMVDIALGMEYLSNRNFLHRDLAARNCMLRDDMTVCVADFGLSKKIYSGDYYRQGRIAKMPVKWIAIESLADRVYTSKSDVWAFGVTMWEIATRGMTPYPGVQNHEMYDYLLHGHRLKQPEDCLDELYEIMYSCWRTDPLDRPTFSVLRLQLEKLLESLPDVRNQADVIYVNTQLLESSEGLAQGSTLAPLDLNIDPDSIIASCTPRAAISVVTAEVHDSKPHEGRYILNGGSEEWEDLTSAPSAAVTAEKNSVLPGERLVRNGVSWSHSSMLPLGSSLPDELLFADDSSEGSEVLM

| Sequence | phosphorylation enrichment |
| --- | --- |
| QWPGPYDRPGA [HNRNPH2_Y210_R206W] | 0.541 |
| EEGRVYVYRLS [ITGAE_Y549] | 0.379 |
| DHCNQYEQQKM [CHD7_Y75_Y72C] | 0.443 |
| RGFDTYFGYLL [ARSB_Y165] | 4.01 |
| LLREWYLQDPF [SIX3_Y225_YF] | 0.567 |
| PRNLIYFGEHP [TRPV6_Y201_C197R] | 0.448 |
| KKLEVYQSIAD [MYBPC3_Y548] | 0.488 |
| THQKSYQPGRK [CEFIP_Y210_N208K] | 0.308 |
| SSEFHYVGGFF [CTSC_Y347_YF] | 0.428 |
| FASTGYVIAIQ [GRIN2B_Y762_G763V] | 0.393 |
| QNVADYMRCLM [RPL5_Y207_Y210C] | 0.42 |
| IGNGYYFRVFS [MYBPC3_Y1136] | 0.449 |
| LYSINYLHFGD [KDM4C_Y201_E206D] | 12.8 |
| KGSEGYLAAIY [NF1_Y2503_T2507I] | 0.485 |
| KGSLPYNLILD [PKD1L2_Y406] | 0.421 |
| RRVLVYVGRGA [QDPR_Y16_G17V] | 0.762 |
| ENPAKYDDIKK [GAPDH_Y255_K251N] | 0.437 |
| IFLADCRIMEG [ALOX12B_Y318_Y318C_YF] | 0.5 |
| NVTRKYSRQIL [MAP3K2_Y463_T464S] | 0.344 |
| LNAGAYSKVVE [PPT1_Y172_Q177E] | 0.448 |
| KNNSIYVLANI [VNN1_Y134_V136L] | 1.95 |
| GHEYIYVDRMQ [PDGFRB_Y581_P584R] | 0.48 |
| TRSFKYLLLSM [NF1_Y491_YF] | 0.399 |
| SDVWSYGVTMW [ZAP70_Y525] | 0.502 |
| DVSVVCSEVKT [FCRL4_Y493_Y493C] | 0.456 |
| METKGYHSLPE [NR3C2_Y6] | 0.515 |
| TDLAFYLVCKG [ASL_Y376_R379C_YF] | 0.446 |
| FEGHSYSACTT [MMP9_Y241_R239H] | 0.562 |
| PESTLYRKFTT [NTRK1_Y701_I699T] | 0.399 |

test system: c-Abl (mouse); test: as above

| Sequence | phosphorylation enrichment |
| --- | --- |
| QWPGPYDRPGA [HNRNPH2_Y210_R206W] | 0.681 |
| EEGRVYVYRLS [ITGAE_Y549] | 0.713 |
| DHCNQYEQQKM [CHD7_Y75_Y72C] | 0.661 |
| RGFDTYFGYLL [ARSB_Y165] | 1.56 |
| LLREWYLQDPF [SIX3_Y225_YF] | 1.15 |
| PRNLIYFGEHP [TRPV6_Y201_C197R] | 0.92 |
| KKLEVYQSIAD [MYBPC3_Y548] | 0.55 |
| THQKSYQPGRK [CEFIP_Y210_N208K] | 0.35 |
| SSEFHYVGGFF [CTSC_Y347_YF] | 0.897 |
| FASTGYVIAIQ [GRIN2B_Y762_G763V] | 0.784 |
| QNVADYMRCLM [RPL5_Y207_Y210C] | 0.911 |
| IGNGYYFRVFS [MYBPC3_Y1136] | 0.967 |
| LYSINYLHFGD [KDM4C_Y201_E206D] | 1.73 |
| KGSEGYLAAIY [NF1_Y2503_T2507I] | 0.563 |
| KGSLPYNLILD [PKD1L2_Y406] | 0.743 |
| RRVLVYVGRGA [QDPR_Y16_G17V] | 0.798 |
| ENPAKYDDIKK [GAPDH_Y255_K251N] | 0.579 |
| IFLADCRIMEG [ALOX12B_Y318_Y318C_YF] | 0.894 |
| NVTRKYSRQIL [MAP3K2_Y463_T464S] | 0.399 |
| LNAGAYSKVVE [PPT1_Y172_Q177E] | 0.46 |
| KNNSIYVLANI [VNN1_Y134_V136L] | 1.05 |
| GHEYIYVDRMQ [PDGFRB_Y581_P584R] | 0.607 |
| TRSFKYLLLSM [NF1_Y491_YF] | 0.706 |
| SDVWSYGVTMW [ZAP70_Y525] | 0.979 |
| DVSVVCSEVKT [FCRL4_Y493_Y493C] | 0.867 |
| METKGYHSLPE [NR3C2_Y6] | 0.704 |
| TDLAFYLVCKG [ASL_Y376_R379C_YF] | 1.14 |
| FEGHSYSACTT [MMP9_Y241_R239H] | 1.34 |
| PESTLYRKFTT [NTRK1_Y701_I699T] | 1.12 |
